Measurements reported in patent US20230136228A1 (LAMKAP BIO ALPHA, published 2023).

Tests used:
[1] = target: T1, human CEACAM5 (carcinoembryonic antigen, CEA), cell surface (human, UniProt P06731 35-685); assay: flow cytometry, MKN-45 and/or HPAF-II cells
T1 construct: whole, on cells; also called CD66e
T1 sequence (looked up): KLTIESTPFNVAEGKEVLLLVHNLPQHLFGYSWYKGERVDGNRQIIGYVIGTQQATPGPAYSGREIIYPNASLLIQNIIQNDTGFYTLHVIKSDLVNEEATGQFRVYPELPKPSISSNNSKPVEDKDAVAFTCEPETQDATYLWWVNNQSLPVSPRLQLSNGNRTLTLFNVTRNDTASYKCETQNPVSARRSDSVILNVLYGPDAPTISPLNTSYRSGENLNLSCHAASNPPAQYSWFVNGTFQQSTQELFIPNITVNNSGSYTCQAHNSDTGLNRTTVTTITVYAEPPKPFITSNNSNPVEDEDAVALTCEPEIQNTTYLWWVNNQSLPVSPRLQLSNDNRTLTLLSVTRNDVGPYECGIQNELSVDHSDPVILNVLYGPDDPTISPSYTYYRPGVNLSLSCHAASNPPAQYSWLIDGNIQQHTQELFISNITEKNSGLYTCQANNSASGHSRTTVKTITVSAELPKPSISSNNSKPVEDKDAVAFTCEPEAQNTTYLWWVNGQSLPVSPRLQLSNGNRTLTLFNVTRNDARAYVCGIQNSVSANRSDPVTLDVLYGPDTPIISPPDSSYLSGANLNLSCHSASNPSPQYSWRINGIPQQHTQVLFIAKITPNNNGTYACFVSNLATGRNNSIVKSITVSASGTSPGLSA

human CD3ε [2] = target: T2, human CD3ε (human, UniProt P07766 23-207); assay: flow cytometry, HUT-78 cells
T2 construct: whole, on cells; Present on cells as part of the CD3/TCR complex; also called CD3 epsilon

[3] = target: T1, human CEACAM5 (carcinoembryonic …); assay: flow cytometry, MKN-45 cells
Source text: Examples of cells that can be used include CEACAM5-positive cell lines such as the gastric adenocarcinoma cell line MKN45 (expressing 155′000 CEACAM5 molecules per cell), or the pancreatic adenocarcinoma cell line HPAF-II (expressing 108′000 CEACAM5 molecules per cell) or the colorectal adenocarcinoma cell line LS174T (expressing 26′000 CEACAM5 molecules per cell) and CEACAM5-negative cell lines, such as the lung carcinoma cell line A549 and the MKN45 CEACAM5-knock out cell line generated by CRISPR-CAS9 methodology. Cell staining and binding assessment can be performed as described above. Binding of the bsAb of the invention at 200 nM, 1000 nM and 5000 nM is 40% and higher compared to binding of TCB2014 (see Table 4 and also FIGS. 11 and 14).

human CD3ε [4] = target: T2, human CD3ε; assay: flow cytometry, primary CD4+ and CD8+ T-cells
[5] = target: T3, shed soluble CEACAM5 (sCEA) (human, UniProt P06731 35-685, limits assumed); assay: cell-based or functional assay
T3 sequence (looked up): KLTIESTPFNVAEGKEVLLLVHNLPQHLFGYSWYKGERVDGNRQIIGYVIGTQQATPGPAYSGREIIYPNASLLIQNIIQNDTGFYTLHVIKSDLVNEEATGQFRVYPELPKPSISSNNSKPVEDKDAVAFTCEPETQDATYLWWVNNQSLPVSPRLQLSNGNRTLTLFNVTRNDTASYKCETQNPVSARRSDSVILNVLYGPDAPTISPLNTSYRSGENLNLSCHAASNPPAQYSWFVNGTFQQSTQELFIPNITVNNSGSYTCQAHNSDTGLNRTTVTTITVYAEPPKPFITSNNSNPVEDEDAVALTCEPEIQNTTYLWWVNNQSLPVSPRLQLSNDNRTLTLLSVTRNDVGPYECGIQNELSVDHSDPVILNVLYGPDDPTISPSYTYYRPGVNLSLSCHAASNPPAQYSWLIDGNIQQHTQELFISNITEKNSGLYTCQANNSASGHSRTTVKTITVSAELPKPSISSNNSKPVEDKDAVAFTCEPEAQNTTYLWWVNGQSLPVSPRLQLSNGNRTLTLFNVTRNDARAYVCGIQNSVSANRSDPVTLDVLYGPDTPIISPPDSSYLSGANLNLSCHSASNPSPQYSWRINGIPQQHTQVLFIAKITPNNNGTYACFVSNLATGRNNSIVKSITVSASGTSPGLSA

[6] = target: T1, human CEACAM5 (carcinoembryonic …); assay: flow cytometry, CEA positive cells
[7] = target: T1, human CEACAM5 (carcinoembryonic …); assay: cell-based or functional assay

T2 sequence (P07766 23-207): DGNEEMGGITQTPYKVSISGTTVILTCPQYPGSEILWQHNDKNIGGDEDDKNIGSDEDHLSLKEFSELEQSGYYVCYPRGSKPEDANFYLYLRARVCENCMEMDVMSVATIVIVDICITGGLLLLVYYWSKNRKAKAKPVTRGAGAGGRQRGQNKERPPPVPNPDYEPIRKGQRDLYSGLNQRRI

B1: AB13L3-1/N (bispecific antibody, human IgG1, kappa, lambda, L234A L235A)
heavy: EVQLVESGGGLVQPGGSLKLSCAASGFTFNTYAMNWVRQAPGKGLEWVGRIRSKYNNYATYYADSVKDRFTISRDDSKNTAYLQMNSLKTEDTAVYYCVRHGNFGNSYVSWFAYWGQGTLVTVSSASTKGPSVFPLAPSSKSTSGGTAALGCLVKDYFPEPVTVSWNSGALTSGVHTFPAVLQSSGLYSLSSVVTVPSSSLGTQTYICNVNHKPSNTKVDKRVEPKSCDKTHTCPPCPAPEAAGGPSVFLFPPKPKDTLMISRTPEVTCVVVDVSHEDPEVKFNWYVDGVEVHNAKTKPREEQYNSTYRVVSVLTVLHQDWLNGKEYKCKVSNKALAAPIEKTISKAKGQPREPQVYTLPPSREEMTKNQVSLTCLVKGFYPSDIAVEWESNGQPENNYKTTPPVLDSDGSFFLYSKLTVDKSRWQQGNVFSCSVMHEALHNHYTQKSLSLSPG
light 1: EIVLTQSPATLSLSPGERATLSCRASQSVNSNLNWYQQKPGQAPRLLIYHGSNRATGIPARFSGSGSGTDFTLTISSLEPEDFAVYYCQQFDYFMNKNTFGQGTKVEIKRTVAAPSVFIFPPSDEQLKSGTASVVCLLNNFYPREAKVQWKVDNALQSGNSQESVTEQDSKDSTYSLSSTLTLSKADYEKHKVYACEVTHQGLSSPVTKSFNRGEC
light 2: QTVVTQEPSLTVSPGGTVTLTCRSSTGAVTTSNYANWFQQKPGQAPRGLIGGTNKRAPGTPARFSGSLLGGKAALTLSGAQPEDEAEYYCALWYKQRWVFGGGTKLTVLGQPKAAPSVTLFPPSSEELQANKATLVCLISDFYPGAVTVAWKADSSPVKAGVETTTPSKQSNNKYAASSYLSLTPEQWKSHRSYSCQVTHEGSTVEKTVAPTECS
notes: Kappa-lambda body, lead optimization wave 1
binding higher than TCB2014 (at 100 nM) [1]: ≥ 40%
binding result (human CD3ε [2]): binds

B2: AB54L3-1/N (bispecific antibody, human IgG1, kappa, lambda, L234A L235A)
heavy: EVQLVESGGGLVQPGGSLKLSCAASGFTFNTYAMNWVRQAPGKGLEWVGRIRSKYNNYATYYADSVKDRFTISRDDSKNTAYLQMNSLKTEDTAVYYCVRHGNFGNSYVSWFAYWGQGTLVTVSSASTKGPSVFPLAPSSKSTSGGTAALGCLVKDYFPEPVTVSWNSGALTSGVHTFPAVLQSSGLYSLSSVVTVPSSSLGTQTYICNVNHKPSNTKVDKRVEPKSCDKTHTCPPCPAPEAAGGPSVFLFPPKPKDTLMISRTPEVTCVVVDVSHEDPEVKFNWYVDGVEVHNAKTKPREEQYNSTYRVVSVLTVLHQDWLNGKEYKCKVSNKALAAPIEKTISKAKGQPREPQVYTLPPSREEMTKNQVSLTCLVKGFYPSDIAVEWESNGQPENNYKTTPPVLDSDGSFFLYSKLTVDKSRWQQGNVFSCSVMHEALHNHYTQKSLSLSPG
light 1: EIVLTQSPATLSLSPGERATLSCRASQEVHKNLNWYQQKPGQAPRLLIYHSSNRATGIPARFSGSGSGTDFTLTISSLEPEDFAVYYCQQFNYHHEHNTFGQGTKVEIKRTVAAPSVFIFPPSDEQLKSGTASVVCLLNNFYPREAKVQWKVDNALQSGNSQESVTEQDSKDSTYSLSSTLTLSKADYEKHKVYACEVTHQGLSSPVTKSFNRGEC
light 2: QTVVTQEPSLTVSPGGTVTLTCRSSTGAVTTSNYANWFQQKPGQAPRGLIGGTNKRAPGTPARFSGSLLGGKAALTLSGAQPEDEAEYYCALWYKQRWVFGGGTKLTVLGQPKAAPSVTLFPPSSEELQANKATLVCLISDFYPGAVTVAWKADSSPVKAGVETTTPSKQSNNKYAASSYLSLTPEQWKSHRSYSCQVTHEGSTVEKTVAPTECS
notes: Kappa-lambda body, lead optimization wave 2
EC50 [3]: 66.4 nM
Top MFI value [3]: 760000 MFI
binding higher than TCB2014 (at 200 nM, 1000 nM and 5000 nM) [3]: ≥ 40%
binding result (human CD3ε [4]): binds
EC50 fold change compared to no shed CEA condition, sCEA 0 µg/mL (reference) [5]: 1 fold
EC50 fold change compared to no shed CEA condition, sCEA 0.2 µg/mL [5]: 0.9 fold
EC50 fold change compared to no shed CEA condition, sCEA 1 µg/mL [5]: 4.6 fold
EC50 fold change compared to no shed CEA condition, sCEA 5 µg/mL [5]: 5.7 fold
binding higher than TCB2014 (at 200 nM) [6]: ≥ 40%
Killing EC50, HPAFII cells (TDCC, LDH release) [7]: 0.1 nM
Killing EC50, LS174T cells (TDCC, LDH release) [7]: 0.13 nM
Killing EC50, MKN45 cells (TDCC, LDH release) [7]: 0.11 nM
